The target of test [1] is β-gal RNCs purified in low-salt buffer without the second sucrose cushion. As to the kind of experiment: affinity purification with mass spectrometry.
Test [2] addresses RNC_(1-646) (Escherichia coli BL21(DE3)). Put plainly: co-sedimentation.
Test [3] has as its target RNC_(1-180) (Escherichia coli BL21(DE3)). Put plainly: co-sedimentation.
The next test deals with longer NCs. As to the kind of experiment: co-sedimentation.
In test [4] the target is BADAN-labelled TF_(R14C) (Escherichia coli) (UniProt P0A850). As to the kind of experiment: other fluorescence titration.

The source of these data is article doi:10.1101/2024.01.22.576655.

Chain of DnaJ (endogenous) (P08622 whole entry): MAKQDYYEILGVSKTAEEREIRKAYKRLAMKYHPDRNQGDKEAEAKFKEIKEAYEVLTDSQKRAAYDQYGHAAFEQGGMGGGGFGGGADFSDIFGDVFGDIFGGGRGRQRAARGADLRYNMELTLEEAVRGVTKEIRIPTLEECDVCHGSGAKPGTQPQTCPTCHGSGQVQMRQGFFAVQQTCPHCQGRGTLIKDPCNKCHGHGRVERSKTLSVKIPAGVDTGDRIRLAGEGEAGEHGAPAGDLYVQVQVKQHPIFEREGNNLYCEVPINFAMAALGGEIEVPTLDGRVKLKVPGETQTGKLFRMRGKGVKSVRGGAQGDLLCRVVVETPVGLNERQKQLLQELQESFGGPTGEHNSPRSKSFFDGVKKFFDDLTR

As to “DnaJ (endogenous) (from UniProt P08622 1-376) (natural protein)”, the occupancy in test [1] is under 10%.

For the substance “DnaK, recombinant (from UniProt P0A6Y8 1-638) (natural protein)”, the stoichiometry N came out at 2 DnaK per NC in test [2] and 1 DnaK per NC in test [3]. For the same substance, the stoichiometry N (molecules of DnaK per NC) with longer NCs lay within 2 to 3.

“Trigger factor, wild type, recombinant (from UniProt P0A850 1-432) (natural protein)” showed a stoichiometry N in test [2] of 1 TF per RNC.

Regarding RNC_(1-646) (complex), the Kd in test [4] was 21 nM.

Regarding “DnaK (endogenous) (from UniProt P0A6Y8 1-638) (natural protein)”, the occupancy in test [1] is under 10%.
